Patent publication US20260199902A1, “SYSTEM AND APPARATUS FOR THE HAND-HELD AMPLIFICATION AND DETECTION OF NUCLEIC ACIDS” (Darwin Biosciences, Inc., priority 2022, published 2026)

B1: Proteinase K: listed under Protein RNase Inhibitors (protein, UniProt P06873 106-384, looked up)
Proteinase K: AAQTNAPWGLARISSTSPGTSTYYYDESAGQGSCVYVIDTGIEASHPEFEGRAQMVKTYYYSSRDGNGHGTHCAGTVGSRTYGVAKKTQLFGVKVLDDNGSGQYSTIIAGMDFVASDKNNRNCPKGVVASLSLGGGYSSSVNSAAARLQSSGVMVAVAAGNNNADARNYSPASEPSVCTVGASDRYDRRSSFSNYGSVLDIFGPGTSILSTWIGGSTRSISGTSMATPHVAGLAAYLMTLGKTTAASACRYIADTANKGDLSNIPFGTVNLLAYNNYQA
B2: NEB RI, murine: murine RNase Inhibitor (M0314; New England BioLabs) (protein, UniProt Q91VI7 1-456, looked up)
Ribonuclease inhibitor: MSLDIQCEQLSDARWTELLPLIQQYEVVRLDDCGLTEVRCKDISSAVQANPALTELSLRTNELGDGGVGLVLQGLQNPTCKIQKLSLQNCGLTEAGCGILPGMLRSLSTLRELHLNDNPMGDAGLKLLCEGLQDPQCRLEKLQLEYCNLTATSCEPLASVLRVKADFKELVLSNNDLHEPGVRILCQGLKDSACQLESLKLENCGITAANCKDLCDVVASKASLQELDLSSNKLGNAGIAALCPGLLLPSCKLRTLWLWECDITAEGCKDLCRVLRAKQSLKELSLASNELKDEGARLLCESLLEPGCQLESLWIKTCSLTAASCPYFCSVLTKSRSLLELQMSSNPLGDEGVQELCKALSQPDTVLRELWLGDCDVTNSGCSSLANVLLANRSLRELDLSNNCMGGPGVLQLLESLKQPSCTLQQLVLYDIYWTNEVEEQLRALEEERPSLRIIS

What was measured:
saliva RNases = assay: RNase activity assay: cell line RNA incubated with treated saliva, read on Agilent TapeStation; assay type: biochemical, human; design: key: Pass (green) indicating sufficient RNase inactivation; Partial Pass (yellow) indicating partial RNase inactivation; Fail (red) indicating incomplete RNase inactivation
Procedure: FIG. 27. Example of saliva RNase activity assays assayed on TapeStation High Sensitivity RNA ScreenTapes (5067; Agilent). Results from three independent assays are shown. Lanes 1-3 (left to right) are experimental controls including 500 μg RNA in RNase free water, untreated saliva without added cell line RNA, and untreated saliva incubated with cell line RNA. Lanes labeled “Incomplete RNase Inactivation” contain no ribosomal RNA bands, indicating RNase activity is present. Lanes labeled “Sufficient RNase Inactivation” contain sharp ribosomal bands (similar to RNA in water), indicating RNases have been inactivated. gDNA=genomic DNA.
To screen for chemical and protein-based reagents that inhibit saliva RNases, we developed an RNase activity assay in which purified cell line RNA was incubated for 30 min at 37° C. with saliva samples after treatment with potential reagents for RNase inhibition (FIG. 2.5.3). After incubation, RNA was purified and analyzed on an Agilent TapeStation. Sharpness of the eukaryotic ribosomal RNA bands (28S and 18S) were compared to determine RNase activity in the presence of various inhibitors. In addition, the Agilent TapeStation calculates an RNA Integrity Score (RIN) as a measure of RNA quality (RIN of 10-fully intact RNA, RIN of 1=fully degraded RNA), however contaminating nucleic acid (e.g., 16S and 23S rRNA from bacteria) interferes with this calculation.
To screen for chemical and protein-based reagents that inhibit saliva RNases, we developed an RNase activity assay in which purified cell line RNA was incubated for 30 min at 37° C. with saliva samples after treatment with potential reagents for RNase inhibition (FIG. 2.5.3). After incubation, RNA was purified and analyzed on an Agilent TapeStation. Sharpness of the eukaryotic ribosomal RNA bands (28S and 18S) were compared to determine RNase activity in the presence of various inhibitors. […]

RT-RPA reactions = assay: RT-RPA interference (compatibility) testing of lysis and RNase inhibitor reagents, agarose gel; assay type: biochemical; design: key: Pass (green) indicates that reagents did not interfere with RT-RPA; Partial Pass: Partial pass (yellow) indicates that reagents had partial interference in RT-RPA; Fail (red) indicates reagents completely interfered with RT-RPA reactions; details: 4 U/μl final in RT-RPA reaction
Procedure: FIG. 28. Reagent interference testing in RT-RPA. Lysis and RNase inhibitor reagents tested in RT-RPA using cDNA and RNA templates. RT-RPA reactions were prepared with varying concentrations of reagents, as labeled above (final concentrations in a 20 μl RT-RPA reaction are reported). Amplification products were run on a 2% agarose gel and band intensities were compared to control (No added reagent) reactions. Reactions labeled in red contain no reverse transcriptase. The expected size of the CXCL8 amplicon is indicated to the left of the gel. GuHCI=Guanidine hydrochloride, Triton=Triton X-100.
Reagents under consideration for the device were tested for compatibility with RT-RPA at the concentrations expected to be required for lysis. To test for interference, lysis or RNase inhibitor reagents were spiked into RT-RPA reactions with purified cell line RNA or cDNA as a template. Reactions were analyzed by agarose gel for the presence or absence of amplified products. […]

RNase activity in saliva = assay: RNase Alert Assay on saliva samples; assay type: biochemical, human
Procedure: FIGS. 3A-D. Optimizing and measuring RNase inhibition by murine RNase Inhibitor (mRI). (A) Diagram of the RNase Alert assay. A quenched fluorescent ssRNA probe reports RNase activity when the quencher and fluorophore are physically separated by RNase degradation. Data is collected immediately after saliva is added to the assay and the RNase activity is calculated from a linear slope of the first 90 second of measurements. (B) RNase activity in five individual saliva samples with or without addition of 4 U/μl mRI. (C) RT-qPCR data for a panel of 12 biomarkers indicating the relative abundance of each biomarker at the indicated time after lysis. Each timepoint is from a pooled saliva sample run through a separate device. Delta Ct values were normalized to the 0 second timepoint. Horizontal bars are mean+/−standard deviation. (D) RNase activity in four saliva samples before and after rehydrating an amplification pad containing 4 U/μl of lyophilized mRI. Saliva in rehydrated pads went through a 20-minute RPA incubation at 39° C. prior to addition to the RNase Alert assay showing that RNase inhibition is long-lived. Ct=Cycle Threshold. […]
To confirm that lyophilized mRI in the amplification pad can rehydrate and inhibit saliva RNases, four amplification pads were rehydrated with saliva and the contents of the rehydrated pads were measured in the RNase Alert Assay (FIG. 3D).

Molecule | Inactivation of saliva RNases, Result (saliva RNases; 50 μg/ml and 2.5 mg/ml) | Inactivation of saliva RNases, Result (saliva RNases; 4 U/μl) | Inactivation of saliva RNases, Result (saliva RNases; 8 U/μl) | Compatibility in RT-RPA, Result (RT-RPA reactions) | RNase activity in saliva samples (RNase activity in saliva; 4 U/μL added, five donor saliva samples) | Inhibition of RNase activity (RNase activity in saliva; lyophilized in amplification pad, rehydrated with saliva, four pads)
B1 | Fail |  |  |  |  | 
B2 |  | Partial | Pass | Pass | reduced the RNase activity in all five samples to negligible amounts | Nearly complete inhibition of RNase activity
